Assay results from the supplement of paper PMC7877785.
± gives the uncertainty stated by the source.

Assay: self-splicing fitness, log relative to wild type (ln ratio); higher = more splicing; Tetrahymena group I intron in knt gene, E. coli kanamycin selection, DiMSum; sequences stand for … in CUCUCU…GGAGGGAAAAGUUAUCAGGCAUGCACCUGGUAGCUAGUCUUUAAACCAAUAGAUUGCAUCGGUUUAAAAGGCAAGACCGUCAAAUUGCGGGAAAGGGGUCAACAGCCGUUCAGUACCAAGUCUCAGGGGAAACUUUGAGAUGGCCUUGCAAAGGGUAUGGUAAUAAGCUGACGGACAUGGUCCUAACCACGCAGCCAAGUCCUAAGUCAACAGAUCUUCUGUUGAUAUGGAUGCAGUUCACAGACUAAAUGUCGGUCGGGGAAGAUGUAUUCUUCUCAUAAGAUAUAGUCGGACCUCUCCUUAAUGGGAGCUAGCGGAUGAAGUGAUGCAACACUGGAGCCGCUGGGAACUAAUUUGUAUGCGAAAGUAUAUUGAUUAGUUUUGGAGUACUCGUGGUCG
How it was run: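 Colonies from six replicate transformations of E. coli BL21(DE3) were pooled and amplicon-sequenced on an Illumina HiSeq 2500. The library placed an intron with all eight P1ex-region nucleotides randomised inside the knt kanamycin-resistance gene on pET-22b(+), and cells grew overnight at 37°C or 30°C on LB agar with or without 25 μg/mL kanamycin (plus 100 μg/mL carbenicillin, 50 μM IPTG, 0.2% rhamnose). Fitness is the DiMSum error-weighted combination of wild-type-normalised replicate fold changes, kanamycin versus none.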

Row | Sequence | self-splicing fitness (ln) (30 °C) | self-splicing fitness (ln) (37 °C)
1 | AUUUAGCAAUAUUACGGGGU | -3.47 ± 0.26 | -2.32 ± 0.19
2 | UUUGAGCAAUAUUACGGGAC | -3.43 ± 0.34 | -2.12 ± 0.27
3 | GAUCAGCAAUAUUACGUCCG | -3.26 ± 0.26 | -1.66 ± 0.22
4 | ACGAAGCAAUAUUACGCAUC | -3.54 ± 0.18 | -3.42 ± 0.3
5 | AUUGAGCAAUAUUACGGUGG | -3.84 ± 0.46 | -1.27 ± 0.15
6 | AUGUAGCAAUAUUACGUACC | -0.724 ± 0.19 | -1.14 ± 0.18
7 | UGAUAGCAAUAUUACGUAAU | -4.31 ± 0.46 | -1.99 ± 0.21
8 | UUAAAGCAAUAUUACGCCCC | -0.451 ± 0.27 | 0.901 ± 0.38
9 | CCGGAGCAAUAUUACGUCAG | -1.42 ± 0.12 | -1.17 ± 0.15
10 | GUUCAGCAAUAUUACGGGUC | -1.11 ± 0.11 | -1.35 ± 0.12
11 | UGUGAGCAAUAUUACGGACU | -2.24 ± 0.22 | -0.378 ± 0.22
12 | GCAGAGCAAUAUUACGACGA | -2.64 ± 0.24 | -0.208 ± 0.12
13 | CAGAAGCAAUAUUACGACUA | 0.00435 ± 0.063 | 0.187 ± 0.081
14 | GCAGAGCAAUAUUACGCUAU | -2.9 ± 0.33 | -1.32 ± 0.28
15 | ACAUAGCAAUAUUACGCGAU | -3.37 ± 0.21 | -2.35 ± 0.25
16 | UUGUAGCAAUAUUACGGCGG | -0.508 ± 0.11 | -0.332 ± 0.14
17 | GAAAAGCAAUAUUACGUUCG | -1.01 ± 0.064 | -0.233 ± 0.08
18 | AAUAAGCAAUAUUACGCGAU | -2.22 ± 0.23 | -2.98 ± 0.35
19 | GGCCAGCAAUAUUACGACCC | – | -1.48 ± 0.44
20 | UUAUAGCAAUAUUACGUAGG | -1.75 ± 0.14 | -0.198 ± 0.17
21 | GACGAGCAAUAUUACGCUCU | -3.92 ± 0.27 | -1.64 ± 0.32
22 | UGUGAGCAAUAUUACGACGU | -3.72 ± 0.18 | -2.29 ± 0.16
23 | UAACAGCAAUAUUACGAGCU | -3.71 ± 0.12 | -2.37 ± 0.11
24 | UGAUAGCAAUAUUACGCAGA | -3.31 ± 0.24 | -1.38 ± 0.11
25 | UAGAAGCAAUAUUACGGUGG | -1.84 ± 0.12 | -1.2 ± 0.13

Row | Sequence | self-splicing fitness (ln) (30 °C) | self-splicing fitness (ln) (37 °C)
26 | UAGUAGCAAUAUUACGAUGU | – | -2.22 ± 0.32
27 | UGGUAGCAAUAUUACGGUCC | -2.05 ± 0.29 | -1.24 ± 0.33
28 | UCUUAGCAAUAUUACGAUGC | -2.66 ± 0.3 | –
29 | CCACAGCAAUAUUACGAAUG | -1.11 ± 0.061 | -0.833 ± 0.071
30 | CAUAAGCAAUAUUACGCCCG | -0.556 ± 0.16 | -0.0931 ± 0.22
31 | UUGCAGCAAUAUUACGGUUC | -4.6 ± 0.27 | -1.67 ± 0.18
32 | GAAAAGCAAUAUUACGCCAU | -2.84 ± 0.15 | -1.57 ± 0.15
33 | CCGGAGCAAUAUUACGUACG | -0.407 ± 0.14 | -0.609 ± 0.18
34 | UGUGAGCAAUAUUACGCACU | -2.44 ± 0.16 | -0.665 ± 0.12
35 | UCGUAGCAAUAUUACGCCUG | -0.246 ± 0.12 | 0.322 ± 0.13
36 | GAGUAGCAAUAUUACGAAUG | -3.18 ± 0.26 | -1.89 ± 0.22
37 | AUGGAGCAAUAUUACGAUAU | -1.77 ± 0.12 | -1.17 ± 0.15
38 | UUAGAGCAAUAUUACGCAGU | -3.64 ± 0.32 | -3.17 ± 0.47
39 | CUUAAGCAAUAUUACGAGGA | -2.64 ± 0.34 | -3.43 ± 0.46
40 | UUAGAGCAAUAUUACGAUUA | -1.07 ± 0.11 | -0.181 ± 0.13
41 | UUUGAGCAAUAUUACGUUGC | -2.68 ± 0.34 | -2.29 ± 0.36
42 | ACAAAGCAAUAUUACGGCGC | -0.996 ± 0.076 | 0.358 ± 0.12
43 | GAAUAGCAAUAUUACGACGG | -3.32 ± 0.36 | -1.1 ± 0.19
44 | GAUGAGCAAUAUUACGAAGC | -1.4 ± 0.41 | 0.175 ± 0.21
45 | CAACAGCAAUAUUACGAUGU | -2.57 ± 0.11 | -1.62 ± 0.11
46 | GUAUAGCAAUAUUACGACAC | 0.143 ± 0.091 | 0.241 ± 0.12
47 | UACCAGCAAUAUUACGAUGG | -3.01 ± 0.11 | -1.25 ± 0.091
48 | GUCAAGCAAUAUUACGCUCA | -1.42 ± 0.11 | -0.0833 ± 0.13
49 | AGCCAGCAAUAUUACGAUUC | -2.67 ± 0.22 | -2.49 ± 0.3
50 | GUGCAGCAAUAUUACGUCCG | -3 ± 0.22 | -0.37 ± 0.18

Row | Sequence | self-splicing fitness (ln) (30 °C) | self-splicing fitness (ln) (37 °C)
51 | UUCUAGCAAUAUUACGGCUU | -3.3 ± 0.39 | -2.22 ± 0.28
52 | GAAAAGCAAUAUUACGGGUA | -1.29 ± 0.1 | -0.306 ± 0.095
53 | GUAAAGCAAUAUUACGCACC | -0.664 ± 0.49 | –
54 | CGCUAGCAAUAUUACGCCGC | -2.55 ± 0.18 | –
55 | GUCGAGCAAUAUUACGCCCU | – | -0.627 ± 0.41
56 | GCCCAGCAAUAUUACGGUCC | -3.39 ± 0.18 | -1.97 ± 0.28
57 | GCCAAGCAAUAUUACGCUUA | -1.02 ± 0.086 | -0.264 ± 0.11
58 | UCUGAGCAAUAUUACGUAGA | -0.966 ± 0.1 | -0.205 ± 0.14
59 | AAUAAGCAAUAUUACGCCUU | -0.502 ± 0.12 | -0.0645 ± 0.18
60 | CUUAAGCAAUAUUACGAUUG | -1.68 ± 0.12 | -1.11 ± 0.13
61 | CAAUAGCAAUAUUACGCCUC | -3.74 ± 0.48 | -2.17 ± 0.36
62 | ACAUAGCAAUAUUACGUGCA | -0.639 ± 0.053 | 0.349 ± 0.063
63 | AGCUAGCAAUAUUACGGAUG | -2.3 ± 0.082 | -0.891 ± 0.095
64 | GUUUAGCAAUAUUACGAGCU | – | -0.552 ± 0.27
65 | AUGCAGCAAUAUUACGCGCG | -0.941 ± 0.1 | -0.349 ± 0.1
66 | CCGGAGCAAUAUUACGCUUU | -4.14 ± 0.3 | -2.47 ± 0.17
67 | UGAAAGCAAUAUUACGUUGA | -3.13 ± 0.17 | -1.23 ± 0.15
68 | AUGUAGCAAUAUUACGACAA | -0.201 ± 0.091 | 0.171 ± 0.11
69 | CGAAAGCAAUAUUACGUGAU | -2.36 ± 0.11 | -1.95 ± 0.14
70 | AUCAAGCAAUAUUACGCAAU | -2.22 ± 0.14 | -1.56 ± 0.14
71 | CGACAGCAAUAUUACGGAAG | -2.1 ± 0.068 | -1.24 ± 0.083
72 | UCGAAGCAAUAUUACGAGUA | -2.08 ± 0.14 | -0.398 ± 0.12
73 | UUGCAGCAAUAUUACGACGC | -3.11 ± 0.46 | –
74 | GCUAAGCAAUAUUACGAAUC | 0.136 ± 0.29 | -0.437 ± 0.35
75 | ACUUAGCAAUAUUACGUCCA | -1.56 ± 0.2 | -0.528 ± 0.2

Row | Sequence | self-splicing fitness (ln) (30 °C) | self-splicing fitness (ln) (37 °C)
76 | CGCCAGCAAUAUUACGCCUA | -3 ± 0.36 | -1.98 ± 0.32
77 | AACUAGCAAUAUUACGAUCU | -0.146 ± 0.082 | 0.426 ± 0.098
78 | CAGUAGCAAUAUUACGUCUG | -3.23 ± 0.11 | -2.6 ± 0.13
79 | GGCUAGCAAUAUUACGUGAA | -0.24 ± 0.086 | -0.383 ± 0.086
80 | UACUAGCAAUAUUACGAGGC | -3.01 ± 0.17 | -2.27 ± 0.23
81 | GCGUAGCAAUAUUACGCAUG | – | -2.21 ± 0.23
82 | GGCAAGCAAUAUUACGGGUC | -3.2 ± 0.17 | -0.979 ± 0.12
83 | CUGCAGCAAUAUUACGUUUC | -3.11 ± 0.14 | -3.1 ± 0.25
84 | GGGUAGCAAUAUUACGGUAU | -2.11 ± 0.13 | -0.598 ± 0.14
85 | CUAAAGCAAUAUUACGAGAU | -2.72 ± 0.16 | -2.05 ± 0.23
86 | GUACAGCAAUAUUACGAUGU | -1.33 ± 0.081 | 0.106 ± 0.088
87 | GAUAAGCAAUAUUACGUCUA | -1.18 ± 0.075 | -0.275 ± 0.085
88 | CACGAGCAAUAUUACGCUGU | -3.55 ± 0.18 | -3.31 ± 0.18
89 | GAAUAGCAAUAUUACGUCGC | -0.78 ± 0.12 | -0.38 ± 0.17
90 | GAAAAGCAAUAUUACGAUAC | -1.21 ± 0.25 | -0.873 ± 0.22
91 | UAGUAGCAAUAUUACGCGUU | -2.86 ± 0.17 | -2.44 ± 0.23
92 | AGUUAGCAAUAUUACGACUC | -2.36 ± 0.32 | -1.83 ± 0.38
93 | CGCAAGCAAUAUUACGGCCA | -1.14 ± 0.13 | -0.716 ± 0.12
94 | CCCUAGCAAUAUUACGGAUC | -4.33 ± 0.39 | -1.71 ± 0.25
95 | AUGGAGCAAUAUUACGAGAA | – | -1.43 ± 0.34
96 | AUAUAGCAAUAUUACGUAAU | -1.02 ± 0.073 | -0.751 ± 0.12
97 | GGAUAGCAAUAUUACGGCCU | -2.24 ± 0.29 | -0.0501 ± 0.17
98 | GCGUAGCAAUAUUACGGCGU | -4.1 ± 0.37 | -2.07 ± 0.28
